Changes are numbered by the printed parent chain. Blank lines part the entries; values can stand above or below the binder they belong to.
Key:
[1] = target: T1, recombinant human CD70 (Flag-TNC-CD70) (human, UniProt P32970 39-193); test: Biacore; recombinant human CD70 on CM5 chip; Fab injected
T1 construct: extracellular domain; Captured by anti-Flag mAb in ELISA; as 'recombinant human CD70' immobilised on Biacore CM5 chips; TNC is for trimerisation; also called recombinant CD70; human recombinant CD70; not shown: Flag tag and TNC trimerisation domain
T1 sequence (looked up): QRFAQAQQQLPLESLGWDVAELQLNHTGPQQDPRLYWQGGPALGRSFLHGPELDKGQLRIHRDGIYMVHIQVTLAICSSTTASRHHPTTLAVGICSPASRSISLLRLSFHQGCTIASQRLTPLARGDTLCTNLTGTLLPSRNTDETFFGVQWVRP
Protocol: Off-rates of the purified llama-derived anti-CD70 blocking Fabs were determined using the Biacore. Recombinant human CD70 was immobilized on a CM5 Biacore chip. The immobilization was performed in accordance with a method provided by Biacore and by using the NHS/EDC kit (Biacore AB): after activation of the chip, a solution of 50 μg/ml of recombinant CD70 in 10 mM acetate buffer with pH of 5 was prepared and 1 μl of this solution (50ng) was injected resulting in a surface density of approximately 1000 RU.
Fabs for the CD70 mAbs ARGX-110, MDX2H5 and SGN70 were prepared by […] digestion (SGN70 and MDX69A7 are described elsewhere herein, MDX2H5, also referred to as MDX1411, is described in WO2008/074004 FIGS. 1A and 1B). Fabs, at a concentration of approximately 100-400 μg/ml, were diluted 6-fold in hepes-buffered saline (0.1M Hepes, 1.5M NaCl, 30 mM EDTA, 0.5% v/v surfactant P20). They were injected (30 μl) and passed through the flow cells at a flow rate of 30 μl/min. After binding of the Fab to CD70, the off-rate was monitored for a period of 10 minutes. After the dissociation, the flow cell surfaces were regenerated by injecting 5 μl of 10 mM NaOH. Sometimes multiple injections of NaOH were needed to regenerate the surfaces depending on the affinity of the Fabs. Off-rate analysis was done by applying the BIAevaluation software. First, the sensogram of the blank runs were subtracted from those obtained with the coated flow cell. […] Moreover, the off-rate of CD27 for CD70 was determined as well.

[2] = target: T1, recombinant human CD70 (Flag-TNC-CD70); test: inhibition ELISA; Flag-TNC-CD70 captured by anti-Flag mAb; competitor CD27-Fc
Protocol: From selected phage transfected into TG1, individual colonies were picked randomly for growth in 96 well plates. After IPTG induction according to standard protocols periplasmic fractions (penis) containing Fabs were prepared. […] In this assay, Flag-TNC-CD70 is captured by an anti-Flag mAb and binding of CD27-Fc is detected via a biotinylated anti-CD27 mAb and strep-HRP in the absence or presence of CD70 Fabs (FIGS. 2 and 3) or CD70 mAbs (FIG. 4). In FIG. 2B it can be seen that 27B3, which has an identical VH as 9D1, but contains a somewhat different light chain, seems to block binding of CD27 to CD70 more efficiently, which was in line with the better off rate of this Fab as measured on Biacore (data not shown). Table 3 indicates the blocking potency (expressed as IC50) for the various llama-human chimeric mAbs tested in the CD70 inhibition ELISA. […] FIG. 3 is a composite of an experiment testing llama CD70 Fabs for blocking activity (in the inhibition ELISA, see white bars) and for CD70 binding (binding ELISA, black bars). For the binding ELISA, Flag-TNC-CD70 is captured by an anti-Flag mAb and binding of the Fabs is detected using an anti-myc-HRP mAb, which recognizes the MYC tag fused to the C-terminus of the Fd fragment. For comparison purposes, known monoclonal antibodies to CD70 (SGN70 described in US 2010/0129362 A1, clone 1F6; and MDX69A7 described in WO2008/074004 FIGS. 5A and 5B) were tested in parallel. […] Of interest is clone 59D10, which as Fab has no blocking activity, but when converted into a chimeric IgG was antagonistic (see Table 3). Amino acid sequences of the VH and VL domains of binding and blocking llama-derived Fab clones are shown elsewhere herein (Tables 6-9).

[3] = target: T2, human CD70 expressed on the surface of cells (human, UniProt P32970 1-193); test: cell-based or functional assay
T2 sequence (looked up): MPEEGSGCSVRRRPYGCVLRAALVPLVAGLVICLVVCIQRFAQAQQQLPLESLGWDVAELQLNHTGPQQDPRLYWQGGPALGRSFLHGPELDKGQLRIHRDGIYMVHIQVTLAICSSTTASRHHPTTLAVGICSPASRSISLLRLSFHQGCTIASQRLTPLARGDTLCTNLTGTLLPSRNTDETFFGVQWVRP

[4] = target: T1, recombinant human CD70 (Flag-TNC-CD70); test: Biacore; CD70 coated CM5 chip; Fab in periplasmic fraction
Protocol: Phage eluted from rounds 3, 4 and 5 of selection were transfected into TG1 and plated clonally; individual clones were picked randomly for further analysis. Periplasmic fractions containing Fabs were prepared from IPTG induced small scale cultures the off rate of each Fab was determined using a CD70 coated CM5 chip in a Biacore binding assay. Clones with Fab having off rates similar to that of 27B3 were sequenced.

B1: 8B12 Fab (Fab, V domains shown)
VH: EVQLVESGGGLVQPGGSLRLSCAASGFTFSVYYMNWVRQAPGKGLEWVSDINNEGDTTYYADSVKGRFTISRDNAKNTLTLQMDSLKPEDTALYYCVRDAGYSNHVPIFDSWGQGTQVIVAS
VL: QTVVTQEPSLSVSPGGTVTLTCGLSSGSVTSSNYPGWYQQTPGQAPRVLIYNTNNRHSGVPSRYSGSISGNKAALTITGAEPEDEADYYCNLHLGSYTPMFGGGTKLTVLG
notes: Llama-derived Fab
- koff [1]: 0.00036 s⁻¹

B2: 45B12 Fab (Fab, V domains shown)
VH: B1 VH with V31A, V48I, D56Y, T57E, L93R, P107Q
VL: QAVLTQPSSVSVSLGQTAKITCQGGNLGLYGANWYQQNPGRAPILLIYGDNYRPLGIPERFTISKSGGTATLTIDGAQAEDESDYYCQSADYSGNSVFGGGTKLTVLG
notes: Llama-derived Fab
- koff [1]: 0.00021 s⁻¹

B5: 9B2 chimeric llama-human mAb (antibody, human IgG1, V domains shown)
VH: QLQVVESGGGLMQPGGSLRLSCAASGFTFSGSAMSWVRQAPGKGLEWVSSIYSHSMYTYYADSVKSRFTISTDNAKNTLYLQMNSLKPDDTAVYYCAASSDYEGLFVSWGQGTQVTVSS
VL: QAVLTQPPSLSASPGSSVRLTCTLNSANSVGSYDISWYQQKAGSPPRYLLYYYSDSLSHQGSGVPSRFSGSTDASANAGLLLISGLQPEDEADYYCSAYNRGSHVFGGGTKLTVLG
- IC50 [2]: 0.126 µg/mL
- IC50 (ng/ml), IL-8 secretion in Raji / HT1080-CD27 co-culture assay [3]: 213 ng/mL

B7: 24B6 chimeric llama-human mAb (antibody, human IgG1, V domains shown)
VH: EVQLQESGGGVVQPGGSLRLSCAASGFTFDDYAMSWVRQAPGKGLEWVSSIYMYDSSTYYADSVKGRFTISTDNAKNTVYLQMNSLKSEDTAVYYCAKDINRSYGSSWSHFGPIFSSWGQGTQVTVSS
VL: QPVLTQPSAVSVSLGQTARITCQGGYYTHWYQQKPGQAPVLVIYINNNRPSGIPERFSGSISGNTATLTISGAQVEDEADYYCQSGSSSTIPVFGGGTKLTVLG
- IC50 [2]: 0.42 µg/mL

B8: 41D12 Fab (Fab, V domains shown)
VH: EVQLVESGGGLVQPGGSLRLSCAASGFTFSVYYMNWVRQAPGKGLEWVSDINNEGGTTYYADSVKGRFTISRDNSKNSLYLQMNSLRAEDTAVYYCARDAGYSNHVPIFDSWGQGTLVTVSS
VL: QAVVTQEPSLTVSPGGTVTLTCGLKSGSVTSDNFPTWYQQTPGQAPRLLIYNTNTRHSGVPDRFSGSILGNKAALTITGAQADDEAEYFCALFISNPSVEFGGGTQLTVLG
notes: Germlined 27B3 Fab, periplasmic fraction
- koff [4]: 0.00023 s⁻¹

B10: 33D8 Fab (Fab, V domains shown)
VH: B1 VH with D56G, D84N
VL: QSALTQPSTVSVSLGQTARITCRGDSLERYGTNWYQQKPGQAPVLVIYDDDSRPSGIPERFSGSSSGATAALTISGAQAEDEGDYYCQSADSSGNAVFGGGTHLTVLG
notes: Llama-derived Fab
- koff [1]: 0.00045 s⁻¹

B11: 24E3 Fab (Fab, V domains shown)
VH: B1 VH with D56G, D84N
VL: QAVVTQEPSLSVSPGGTVTLTCGLTSGSVTSDNFPVWYQQTPGQAPRLLIYTINSRHSGVPSRFSGSITGNKAILTITGAQPEDEADYYCALYLENFANEFGGGTRLTVLG
notes: Llama-derived Fab
- koff [1]: 8e-05 s⁻¹

B14: 36A9 Fab (Fab, V domains shown)
VH: B1 VH with D56G, A75S, D84N, L93V, A121S
VL: B8 VL with A2T, L10F, T11S, A86S, E87D
notes: as for B8
- koff [4]: 0.00013 s⁻¹

B15: 35G1 Fab (Fab, V domains shown)
VH: B8 VH with L18V, S75A, S78T, R87K, A88P, S121A
VL: B8 VL with A2T, L10F, T11S, T55S, A86S, E87D
notes: as for B8
- koff [4]: 0.00023 s⁻¹

B21: 35G2 Fab (Fab, V domains shown)
VH: B8 VH with S75A, S78T, R87K, A88P
VL: B8 VL with A2T, L10F, T11S, D32T, T55S, E87D
notes: as for B8
- koff [4]: 0.00017 s⁻¹

B22: 35G3 Fab (Fab, V domains shown)
VH: B8 VH with Y80T, R87K, A88P
VL: B8 VL with L10F, T11S, T55S, T78R, F89Y
notes: as for B8
- koff [4]: 0.00017 s⁻¹

B23: 36D6 Fab (Fab, V domains shown)
VH: B1 VH with D56G, T80Y, D84N, Q117T, I119T, A121S
VL: B8 VL with A2T, D32T, T55S, A86S, E87D
notes: as for B8
- koff [4]: 0.00014 s⁻¹

The remaining lines, values ahead:

- koff [1]: 0.00021 s⁻¹
B3: 45D9 Fab (Fab, V domains shown)
VH: B1 VH with V31A, V48I, D56Y, T57E, L93R, P107Q
VL: B2 VL with G28W, Y52Q
notes: Llama-derived Fab

- koff [1]: 0.0002 s⁻¹
B4: 45F8 Fab (Fab, V domains shown)
VH: B1 VH with V31A, V48I, D56Y, T57E, L93R, P107Q
VL: B2 VL with K19N, I47F, R53M, D81N, A90S, S93P
notes: Llama-derived Fab

- koff [1]: 0.00139 s⁻¹
B6: 59D10 Fab (Fab, V domains shown)
VH: EVQLVESGGGLVQPGGSLRLSCAASELSFSISEMTWVRQAPGKGLEWVSGISGVTGGSSTSYADSVKGRFTISRDNDKNTLYLQMNSLIPEDTAVYYCATTSGTYYFIPEYEYWGQGTQVTVSS
VL: QSVLTQPPSVSGSPGKTVTISCAGTSSDVGYGYYVSWYQQFPGMAPKLLIYDVNKRASGIADRFSGSKAGNTASLTISGLQSEDEADYYCASYRSSANAVFGGGTHLTVLG
notes: Llama-derived Fab

- koff [4]: 0.00012 s⁻¹
B9: 39D5 Fab (Fab, V domains shown)
VH: B8 VH with V31G, S75A, S78T, A97V, L117T, S121A
VL: B8 VL with A2T, L24V, K25T, A82P, D83E, A86S, E87D, F89Y
notes: as for B8

- koff [4]: 0.0002 s⁻¹
B12: 53G1 Fab (Fab, V domains shown)
VH: B1 VH with D56G, T80Y, D84N, L93V, Q117T, A121S
VL: B8 VL with A2T, L10F, T11S, K25T, D32T, T55S, D62S, A86S, E87D
notes: as for B8

- koff [4]: 0.00016 s⁻¹
B13: 40F1 Fab (Fab, V domains shown)
VH: B8 VH with T57A, L117Q
VL: B8 VL with L10F, T11S
notes: as for B8

- koff [4]: 0.00022 s⁻¹
B16: 41H8 Fab (Fab, V domains shown)
VH: B8 VH with S78T, L117Q, S121A
VL: B8 VL with L10F, T11S, K25T, D32T, T55S, A82P, D83E, A86S, E87D
notes: as for B8

- koff [4]: 0.00025 s⁻¹
B17: 39C3 Fab (Fab, V domains shown)
VH: B8 VH with E6A, S78T, L117T
VL: B8 VL with L10F, T11S, D62S, A86S, E87D, F89Y
notes: as for B8

- koff [4]: 0.00011 s⁻¹
B18: 36G2 Fab (Fab, V domains shown)
VH: B8 VH with S75A, Y80T, A97V, L117Q
VL: B8 VL with A82P, D83E, A86S, E87D, F89Y
notes: as for B8

- koff [4]: 0.00023 s⁻¹
B19: 53F1 Fab (Fab, V domains shown)
VH: B1 VH with D56G, D84N, L93V, I119T
VL: B8 VL with L10F, T11S, A86S, E87D
notes: as for B8

- koff [4]: 0.00016 s⁻¹
B20: 42D12 Fab (Fab, V domains shown)
VH: B8 VH with S78T, A97V, L117Q
VL: B8 VL with L10F, T11S, K25T, D32T, D62S
notes: as for B8

Reference: patent publication US20150266963A1 (ARGEN X B V, published 2015)
